Positions count from the first letter of the chain named. Numbers in names are those of the source.
B1: 101-51-1A5 ATRIMER (designed binder)
chain: EPPTQKPKKIVNAKKDVVNTKMFEELKSRLDTLAQEVALLKEQQALQTVCLKGTKVHMKCFLAFTQTKTFHEASEDCISRGGTLSTPQTGSENDALYEYLRQSVGNEAEIWLGLNGSALTNTWVDMTGARIAYKNWENGHEPQPRGGFGYFGENCAVLSGAANGKWFDKRCRDQLPYICQFGIV
B2: 105-20-1B3 ATRIMER (designed binder)
chain: B1 chain with N138T, G139E, H140I, E141T, P142A, R145D
notes: not shown: C-terminal tag: Myc/His6 (pANA4) or HA-StrepII (pANA10); A Ser left at the ompA junction may also sit at the N-terminus
B3: 105-78-2E6 ATRIMER (designed binder)
chain: B1 chain with A118L, L119R, N138T, G139E, H140I, E141T, P142A, R145D, Y150V
notes: not shown: C-terminal purification tag: Myc/His6 (pANA4) or HA-StrepII (pANA10)
B4: 105-08-2G10 ATRIMER (designed binder)
chain: B1 chain with A118P, N121D, N138T, G139E, H140I, E141T, P142A, R145D
B5: 101-113-6C102 ATRIMER (designed binder)
chain: EPPTQKPKKIVNAKKDVVNTKMFEELKSRLDTLAQEVALLKEQQALQTVCLKGTKVHMKCFLAFTQTKTFHEASEDCISRGGTLSTPQTGSENDALYEYLRQSVGNEAEIWLGLNGSNVTQTWVDMTGARIAYKNWEPPPPHHPQGGFGVFGENCAVLSGAANGKWFDKRCRDQLPYICQFGIV
modifications: ATRIMER is a homotrimer; one protomer is given.
notes: as for B3
B6: 105-08-2H6 ATRIMER (designed binder)
chain: B1 chain with A118P, L119V, N121G, N138T, G139E, H140I, E141T, P142A, R145D
B7: 105-20-1A6 ATRIMER (designed binder)
chain: B1 chain with L119K, N121G, N138T, G139E, H140I, E141T, P142A, R145D, F148W
notes: not shown: C-terminal tag: His/Myc (pANA4) or HA-StrepII (pANA10)
B8: 105-20-2F10 ATRIMER (designed binder)
chain: B1 chain with L119R, N121D, N138T, G139E, H140I, E141T, P142A, R145D
modifications: Forms a homotrimer (ATRIMER) through the tetranectin coiled coil; one protomer is given.
notes: not shown: C-terminal tag
B9: 105-20-2C11 ATRIMER (designed binder)
chain: B1 chain with A118V, L119R, N121D, N138T, G139E, H140I, E141T, P142A, R145D, F148W
B10: 105-08-2G7 ATRIMER (designed binder)
chain: B1 chain with A118P, L119K, N121G, N138T, G139E, H140I, E141T, P142A, R145D
notes: as for B7
B11: 105-20-2C4b ATRIMER (designed binder)
chain: B1 chain with A118V, L119K, N121D, N138T, G139E, H140I, E141T, P142A, R145D, F148W
modifications: Forms a homotrimer (ATRIMER) through the tetranectin coiled coil; one protomer is given.
notes: not shown: C-terminal tag
B12: 105-20-1H1 ATRIMER (designed binder)
chain: B1 chain with A118P, N138T, G139E, H140I, E141T, P142A, R145D, F148W
B13: 105-08-2H11 ATRIMER (designed binder)
chain: B1 chain with A118P, L119R, N121D, N138T, G139E, H140I, E141T, P142A, R145D, F148W
B14: 105-59-3B5 ATRIMER (designed binder)
chain: B1 chain with A118P, L119I, N121D, N138T, G139E, H140I, E141T, P142A, R145D, Y150V
notes: as for B3
B15: 105-08-2H2 ATRIMER (designed binder)
chain: B1 chain with A118P, L119T, N121D, N138T, G139E, H140I, E141T, P142A, R145D, F148W
B16: 105-20-2G5 ATRIMER (designed binder)
chain: B1 chain with A118R, L119R, N121D, N138T, G139E, H140I, E141T, P142A, R145D, F148W
notes: as for B7
B17: 105-78-2D1 ATRIMER (designed binder)
chain: B1 chain with A118L, L119R, N121H, N138T, G139E, H140I, E141T, P142A, R145D, Y150V
notes: as for B2
B18: 105-20-1B4 ATRIMER (designed binder)
chain: B1 chain with A118S, L119R, N138T, G139E, H140I, E141T, P142A, R145D, F148W
modifications: Homotrimer of the given chain (ATRIMER complex).
B19: 105-61-4G5 ATRIMER (designed binder)
chain: B1 chain with A118P, N138T, G139E, H140I, E141T, P142A, R145D, Y150V
notes: as for B2
B20: 105-08-2H3 ATRIMER (designed binder)
chain: B1 chain with A118S, N138T, G139E, H140I, E141T, P142A, R145D, F148W
modifications: Homotrimer of the given chain (ATRIMER complex).
B21: 105-20-2G12 ATRIMER (designed binder)
chain: B1 chain with A118P, L119R, N138T, G139E, H140I, E141T, P142A, R145D
notes: as for B2
B22: 105-08-2H10 ATRIMER (designed binder)
chain: B1 chain with A118N, L119H, N121D, N138T, G139E, H140I, E141T, P142A, R145D
notes: as for B7
B23: 105-59-3A5 ATRIMER (designed binder)
chain: B1 chain with A118L, N138T, G139E, H140I, E141T, P142A, R145D, Y150V
notes: as for B2
B24: 101-51-1A9 ATRIMER (designed binder)
chain: B1 chain with N138P, G139A, H140R, E141Q, R145G
modifications: ATRIMER is a homotrimer; one protomer is given.
notes: as for B3
B25: 105-20-2C7 ATRIMER (designed binder)
chain: B1 chain with A118V, L119T, N121D, N138T, G139E, H140I, E141T, P142A, R145D
B26: 105-08-1A3 ATRIMER (designed binder)
chain: EPPTQKPKKIVNAKKDVVNTKMFEELKSRLDTLAQEVALLKEQQALQTVCLKGTKVHMKCFLAFTQTKTFHEASEDCISRGGTLSTPQTGSENDALYEYLRQSVGNEAEIWLGLNGSPRTDTWVDMTGARIAYKNWETEITAQPDGGWGVFGENCAVLSGAANGKWFDKRCRDQLPYICQFGIV
notes: as for B2
B27: 101-54-4B10 ATRIMER (designed binder)
chain: B1 chain with N138R, G139P, H140P, E141L, P142Y, R145G
modifications: ATRIMER is a homotrimer; one protomer is given.
notes: as for B3
B28: 105-08-2H12 ATRIMER (designed binder)
chain: B26 chain with D121E, W148F, V150Y
modifications: Homotrimer of the given chain (ATRIMER complex).
B29: 105-20-1H7 ATRIMER (designed binder)
chain: B26 chain with P118A, R119G, D121N, W148F, V150Y
B30: 105-61-4G3 ATRIMER (designed binder)
chain: B26 chain with P118L, W148F
notes: as for B3
B31: 105-08-2H4 ATRIMER (designed binder)
chain: B26 chain with P118V, W148F, V150Y
B32: 105-20-2C4a ATRIMER (designed binder)
chain: B26 chain with P118A, R119K, V150Y
notes: as for B7
B33: A4A ATRIMER (designed binder)
chain: EPPTQKPKKIVNAKKDVVNTKMFEELKSRLDTLAQEVALLKEQQALQTVCLKGTKVHMKCFLAFTQTKTFHEASEDCISRGGTLSTPQTGSENDALYEYLRQSVGNEAEIWLGLNWTLAKNLWVDMTGARIAYKNWETEITAQPDGGLFGRGENCAVLSGAANGKWFDKRCRDQLPYICQFGIV
modifications: Forms a homotrimer through the tetranectin coiled coil; one protomer is given.
notes: also called 001-87.A4A
B34: C3C ATRIMER (designed binder)
chain: B26 chain with G116A, S117N, P118R, T120R, D121T, T122M, W148M, F151W
modifications: Forms a homotrimer through the tetranectin coiled coil; one protomer is given.
notes: also called 001-89.C3C
B35: B9B ATRIMER (designed binder)
chain: B26 chain with G116A, S117P, R119D, T120L, D121G, T122L, F151W
modifications: Forms a homotrimer through the tetranectin coiled coil; one protomer is given.
notes: also called 056-41.B9B

Each binder was assayed against T1, recombinant human IL-23R/Fc chimera (R&D Systems) (human, UniProt Q5VWK5 24-353) (assay: competition ELISA against IL-23).
T1 construct: bought; also called human IL-23R/Fc fusion protein; rhIL23RFc
T1 sequence (looked up): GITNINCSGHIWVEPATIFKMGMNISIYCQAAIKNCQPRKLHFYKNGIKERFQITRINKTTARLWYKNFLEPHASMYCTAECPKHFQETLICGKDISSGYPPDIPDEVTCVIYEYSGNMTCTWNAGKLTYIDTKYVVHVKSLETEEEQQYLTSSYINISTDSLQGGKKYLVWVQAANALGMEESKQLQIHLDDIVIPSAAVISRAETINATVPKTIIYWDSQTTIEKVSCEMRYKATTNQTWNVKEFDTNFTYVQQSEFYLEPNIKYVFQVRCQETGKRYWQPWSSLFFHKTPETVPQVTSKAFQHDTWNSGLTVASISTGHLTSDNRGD
Description: Assays were performed generally as follows. Individual wells in Immulon HB2 plates were incubated overnight at 4° C. with 100 μL PBS containing 100 ng of an anti-human IgG Fc (R&D MAB 110 clone 97924). Plates were washed five times with PBS/0.05% Tween 20, and wells were incubated for 1.5 h at RT with 100 μL each of PBS containing 50 ng of recombinant human IL-23R/Fc. […] Competitor was included at a final concentration of 1 μg/mL. After incubation, plates were washed as described and wells were incubated for 40 min at RT with 100 μL each of PBS containing a 1:5000 dilution of streptavidin-HRP conjugate (Pierce catalog no. 21130). After washing, wells were incubated with 100 μL each of TMB (BioFX Lab catalog no. TMBH-1000-0) for up to 30 min at RT. Reactions were stopped with an equal volume of 0.2 M sulfuric acid.

Row | Ratio IC50 to 056-53.H4E IC50 [ratio] | Binder
1 | 1 | B1
2 | 1.2 | B2
3 | 1 | B3
4 | 1.8 | B4
5 | 2 | B5
6 | 2 | B6
7 | 6.6 | B7
8 | 4.2 | B8
9 | 4.8 | B9
10 | 2.5 | B10
11 | 4.2 | B11
12 | 1.8 | B12
13 | 4.3 | B13
14 | 0.8 | B14
15 | 4 | B15
16 | 5.3 | B16

Row | Ratio IC50 to 056-53.H4E IC50 [ratio] | Binder
17 | 1.3 | B17
18 | 3 | B18
19 | 1 | B19
20 | 2.9 | B20
21 | 1 | B21
22 | 6.5 | B22
23 | 1.2 | B23
24 | 2.2 | B24
25 | 3.5 | B25
26 | 1.1 | B26
27 | 1.4 | B27
28 | 3.3 | B28
29 | 2.1 | B29
30 | 0.8 | B30
31 | 5 | B31
32 | 2.9 | B32

What follows are binders tested against T1, recombinant human IL-23R/Fc chimera … (assay: SPR (Biacore), captured IL-23R/Fc, ATRIMER).
Description: A Biacore 3000 biosensor (GE Healthcare) was used to evaluate the interaction of human IL-23R and receptor binders. Immobilization of an anti-human IgG Fc antibody (GE Heathcare) to the CM5 chip (Biacore) was performed using standard amine coupling chemistry, and this modified surface was used to capture a recombinant human IL-23R/Fc fusion protein (R&D Systems). A low-density receptor surface, less than 200 RU, was used for all of the analyses. ATRIMER™ polypeptide complex dilutions (1-500 nM) were injected over the IL-23R surface at 30 μl/min and kinetic constants were derived from the sensorgram data using the Biaevaluation software (version 3.1, GE Healthcare). Data collection was 3 minutes for the association and 5 minutes for dissociation. The anti-human IgG surface was regenerated with a 30 s pulse of 3M magnesium chloride. All sensorgrams were double-referenced against an activated and blocked flow-cell as well as buffer injections.

Row | Ka [M⁻¹] | Kd [pM] | koff [s⁻¹] | kon [M⁻¹ s⁻¹] | Binder
33 | 1.71e+09 | 584 | 0.000289 | 495000 | B1
34 | 1.24e+08 | 8080 | 0.000409 | 50600 | B33
35 | 9.62e+08 | 1040 | 0.000283 | 271000 | B5
36 | 1.2e+08 | 8340 | 0.000483 | 57900 | B34
37 | 1.05e+09 | 955 | 0.000329 | 345000 | B24
38 | 2.11e+09 | 473 | 0.000348 | 735000 | B26
39 | 1.11e+09 | 897 | 0.000429 | 479000 | B27
40 | 1.94e+08 | 5150 | 0.000478 | 92800 | B35

Source: patent publication US20110086770A1 (ANAPHORE, published 2011)
